Results: US20230056099 (published 2023)

B1: D3 (ssDNA)
DNA: ATCTCGACTAGTCATAGGGGGCGCGAACATACGCGGTTGGTGTGGTTGGCTGACAA
modifications: circular (5' and 3' ends joined)
B2: D1 (ssDNA)
DNA: ATCTCGACTAGTCATAGGGGGCGCGAACATACGCGGTTGGTGTGGTTGGCTGACAATACTCGTGTCTCGGAT
modifications: circular (5' and 3' ends joined)
B3: D2 (ssDNA)
DNA: ATCTCGACTAGTCATAGGGGGCGCGAACATACGCGGTTGGTGTGGTTGGCTGACAATACTCGT
modifications: circular (5' and 3' ends joined)
B4: TBCA (ssDNA)
DNA: ATCTCGACTAGTCATAGGGGGCGCGAACATACGCGGTTGGTGTGGTTGGCTGACAATACTCGTTTTTGGTGTCTCGGAT
modifications: circular (5' and 3' ends joined)

Molecular target: thrombin (human alpha-thrombin) (UniProt P00734;P00734 P00734:328-363,P00734:364-622)
Assay: inhibition; 0.1 nM thrombin, 2 uM fibrinogen, absorbance 350 nm

Q: How did the IC50 turn out when GGTTGGTGTGGTTGG (ssDNA) [TBA] was run?
A: 1.3 nM

Q: For B1, which IC50 is on record?
A: 0.13 nM

Q: Which IC50 does the source give for B2 here?
A: 0.15 nM

Q: For B3, which IC50 is on record?
A: 0.09 nM

Q: With B4 as the binder, how does the IC50 read?
A: 0.15 nM
